Data as given in PMC314469, “Protein Interaction Networks by Proteome Peptide Scanning” (PLoS Biology, 2004).

T1: Abp1 SH3 (ABP1_YEAST), P15891
T1 chain: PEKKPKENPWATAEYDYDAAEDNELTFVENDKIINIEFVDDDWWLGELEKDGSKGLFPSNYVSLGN


Target: T1, Abp1 SH3 (ABP1_YEAST), P15891
Experiment: SPOT array

Row | Binder | normalised SPOT signal, Boehringer light units (BLU); mean over the file's lines of this peptide
1 | LVTPLAGGVTPMKP [YAL054C 478-491] | 93.7
2 | LTLWSQPPDVLKP [YLL031C 923-935] | 104
3 | LSYYLAISTNPGRP [YOL003C 52-65] | 40.5
4 | LTTNKETPANAKP [YAR044W 406-418] | 111
5 | LSKNWELPQRLKP [YOL028C 50-62] | 1040
6 | LWQYVTDPSYKKP [YBR241C 284-296] | 48.4
7 | LSRKESKFGTPEKP [YBL052C 441-454] | 75.9
8 | LTNLIRNPRFSKP [YHR168W 311-323] | 631
9 | LSKVRGRPMYPRP [YBR083W 422-434] | 382
10 | LWSWVLGPLLSRP [YOL110W 177-189] | 120
11 | LTEITKLPNITRP [YLR152C 193-205] | 150
12 | LTSGGSLPVSPRP [YOL061W 323-335] | 60
13 | LVSATAVPAESKP [YPL074W 405-417] | 25
14 | LSLNKAFEKVPRRP [YNL068C 392-405] | 854
15 | LTSLPVPPPPVRP [YDL140C 236-248] | 68.5
16 | LSTVNPAPANRKP [YJL005W 199-211] | 171
17 | LWQRKKLGEAPIKP [YLR129W 775-788] | 29.7
18 | LVFELDENLKPSKP [YKL152C 212-225] | 105
19 | LTFANVSFSYPSRP [YKL209C 357-370] | 100
20 | LVSIENAPVSLRP [YGR031W 172-184] | 59.6
21 | LSQLKRFERSPGRP [YFL007W 20-33] | 524
22 | LWALLQSGRLPQRP [YDR147W 440-453] | 322
23 | LVDPKVDPILLRP [YBL069W 153-165] | 137
